Measured values taken from the domain aggregation screens of Martell et al. (2025).

Test: soluble fraction after stress (log2 fold change); higher = more stays soluble; pooled small domains, quantitative proteomics
Conditions: stress: pH 4
Outline: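 With high-throughput quantitative proteomics, pooled custom libraries of small protein domains were measured after pH 4 stress. Each domain's soluble amount after the stress gives a fold change taken as aggregation propensity. Higher log2 values mean more of the domain stayed soluble.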

Sequence | soluble fraction (log2)
HMEKKDTYTVKNGDSLWGIARTELGDGGRFREIYTLNADTIEAEAKKRGRSSSSEGHWIYPGSVLRLP | -0.325
HMEKKGTVVIATVKGDIHDIGKNIVKVLLENYGFDVIDLGKDVPPEAVVEAVQQSGARLVGLSALM | -0.577
HMEKKSKLVLAVLQGSDSDNTIRNLNERGFMVTVLSSTGGFLKKKSTTVMIGVEEDRLEEALDVLQKYAG | -0.617
HMEKKTILIPPVITVRALAEISQIPVNRLLQELIKNGVFTSINEKIDFDTAVIIGADLNLDIQLL | -0.984
HMEKLPRYILPGVPKVKSINISSALDGLVQDYSREFNISQKDIFQIALVEFFKKYGYHNAVKAVL | 0.0067
HMEKLSMLKIKELFRLAIEMNLSHRQIAQSLNVSHTVVNRYLKRFKKSNLSYETLLKLGDKEIISALYEH | -0.0551
HMEKPAQDVLASHREWMGEMIKAEHMTAKQVWRLLRERADIGVSYPTVKRYLRAHFQFGGPS | 0.00611
HMEKRLDYTFGLNKEQLLYLTKSIKDGDFYNVSFIDGTEKKLNRVGSTKEVHKYVNFLMTNDGIVKK | 0.0133
HMEKSLKELAQGVGQKVLTSGRPYHFDPMSAMERRVVHMTLMEMDGLRTESEGEGRFRHVVVFPA | -0.208
HMEKTEQMQVILDYIARYGEINNEKVQEILGVKRTRAYTILKQMVENGFVTTNGRGEEKKYYSIR | -0.33
HMEKTIQIYDNIIIKDFAEKMEVSPSQVITKLIGLGVMANLNQPIDINSAVIVGKEFGFNVESM | -0.952
HMEKVLPFEFERKFKTNHTAWDFFSNQAPPSYRKTVIHWILSAKQEITRISRLEKLIAASEQQKRI | -0.31
HMEKYIVNQEEQGKRLDIYVVNKSSELTRTAVQRLIEQEHILVNGRKQKASYKVLEGDIITIERV | -0.649
HMEKYTDDLEIAAEIARLETLMEGNGRVLIRPSGTEPLVRVMIEGNDIEQITKLAEDLAALLNKRF | -0.842
HMELDFNSVYRQLNHEQKQAYQSIKSVLEQKISGSELDKKLKQAQQAFVAKFKENPNFEVPK | 0.22
HMELDIGKKAIVIEKIDPEAGTGRVRIEGVDWGAKTADSSVIEKGETVVVKAKGAAFVTVAK | 0.0671
HMELEAFPNPTDMFLSFTTKEKTPLAIYDINGKQVLYVEQITSSSKINVSKLSEGVYFAKTNQGTVKWVK | -0.46
HMELEQLKSQLTGFLKANREQIFTAQNLADGLRMTDSQGYKQVVNALNASVRDGDVIDIKNGYQYNKN | -0.0153
HMELEWENYSLAGEIKTTVMLYQNRRNGLPEEAKQKADALMKQLKQAVIENDAQKVEKIDDALTALLFE | -0.249
HMELGYTPNNLRSVRAKYGLTQKQVAEITGLKTWHPVNRWEAPVEAAYHADMPHTKWLKLLDELSSR | -0.0144
HMELKYIDYDEALVVYAKTVTASGGGLSGVKDEGGIRKVLDFVQNDLYYPTFVDKLTYLVFGL | -0.155
HMELLPAERRQQLVDWFKSNQAGTSQDLARMFGISVSTIRRDLDLLASEGLVKRTHGGAVSIR | 0.2
HMELLPFEFARANRVLLRVNESDLVVSPDANHSAVTEILRLNNNIETIKSVDAEAFDKILSSIYSG | -2

Sequence | soluble fraction (log2)
HMELLSVPSRLGTFFLGGEAGHIIRLYLPGDPTPRIAEHETPVLSEARRQLLEYLAGRRTAFSFPL | -0.223
HMELNEIEFENLKESIIIHLEKESLSPHELVKHIQTIHPDKVTAVIQWMLENGFIKTDAGGQLTLVSK | -0.485
HMELNELTSRELMVAEQVARGASNREISEALSISERTVKAHLSAAFEKLGVRDRVQLALAMNNIPT | -0.886
HMELNKNDLKIIKNISHIYPYFTPVKILQLILSKKFKTIDYNKILKSTSILTTDRSHLYYILNN | 0.22
HMELPSDEHLDDISHLARIGHKKGLQEKIIQLEQQGLASAEFIQQLKTLTNNFQFEKIIQWVDSEL | -0.848
HMELRIREILESKDIKVSSLAETVGITRANMSNIVNGKSTPSLETLEKIANALGVDITELFA | -0.573
HMELSAEGWVDGTGVRMRASASTDSEVVRVTEDGESLDITGVSGTWYRVTAGGVSGYIRSDYVSLEEP | -0.186
HMELSAQEIGRRLRIARENADIRQDDAAQVIGMSRPTLVSIEKGVRRVRIQEIQMLARHYGVSVNALLR | -0.2
HMELSVTDRTRQIRHILKEKGRVEFTSLFEELTKPYVIVTFLSVLEMSKNNELMITQDKTFGSITLEMKG | -0.383
HMELVIGESLAVELLRPGKEDGQALGYLPDGSMVVVNNGRAFVGKRVTAEIIGVIRSAGGKMVFSNLLGE | -2
HMEMDITIQMRTLVEELNRASDAYYNGRGELMTDYEWDAKFDQLKQLESQSGVVLPDSPTHRV | -1.51
HMEMELNHVARRAGRLSGFLKGELRLSTGLMNRLKWSNAILVNGKPARTNAQVEPGDRITVILD | 0.189
HMEMLQENIRNLRKAKGWSQEELAIKLNVVRQTVSKWEKGLSVPDSQMLIRIADELDTTVAILLG | 0.253
HMEMLQRFIFLENVSSTQVESAIKELHPNLNLKRVKLSFPGADTVLLKGPKQDLELAEELIRHLDRSE | -0.609
HMEMPGGVMRTLSTIAYNQPVLQSKLVKVRGPRAYEDVHILRDMGLVSARSVGQTVELSTTPKFAEQF | 0.102
HMENEIFVPKVFMDWYNKVDKSIKVFKAFNLIEKETDPRLKEWVEDNQDEFAKIWLGQLLPVV | -0.35
HMENFIPDDPKRIEIGMSVLHQRFGKGKVMQLEGNLPDMKATVNFEGEGQKQLLLKYARLKIV | -0.0241
HMENIDVGQDYKVTMNTIQNLMKTGLVTGTQYKELLREMGVHSGMGAITAQQHQIALDFLNKTMDSA | -0.444
HMENIIKISASYEGLRVDQFLSNYLKISRSKVQKYISEEKIFLNNVPTKTNRKVKLDDIISYNLNF | 0.0839
HMENITTILRSIKNEIKKNSTFVGDDFVNQARSMNQGQIKEKSIYGHGTKKEIEELRDEGVDVLNIPWIT | 0.0184
HMENKIIKNAAHATLKVKKDAGIEITTELIREAVILFHRIYSPNDNPNINWERIINELESHYT | -0.993
HMENLFPDYTMQDYRIVRSELSSKFKVQTVPVTTATATENKIVRQEPEAGSRITEGMTVILYYSIGPE | 0.0963
HMENLRLSELTVERGHRLAGRTLADIASAPNSPKYLIVLIQRGQETVIPTGSTVILPGDVLILAQS | -0.749

Sequence | soluble fraction (log2)
HMENMSFGTKLYTWLYGKLVGSDEIGNKYYTNINDPSDLNAKRWVIFNGEIEASKIPPHWHAWLHKSIDK | -0.265
HMENMTLGQRIQALRKQHGLSQEGLGERLGVSRQAISRWEMDGAVPEVDKLIAMARLFGVSLNQLLGVE | -0.0911
HMENNIPANIKALIISYVNQNYPGAVIHSIERNSNGTYDVEIYYNNREYDLLFDAQGNFISGNVDDQ | -0.366
HMENNIRLSVPDTESGQRIDSYLAEQIPGLTRSAVQNLLAEQAVTIAGKAVKKNYKLLGGEDILVQLPEVR | ≥ 0.43
HMENPPISVVIPPSFRGQRIDKALGSLIGDYSRSKIQQWLQSGLVQSAGEPLLPKYTVLGNEQILIAVPS | 0.03
HMENQGEDMRQQVKALVNADKTNITKLATATGYSRSTISMYLAGNYKGDVEAVERRLEEYMKTQG | 0.167
HMENSYSVEDLALKAAISVDTIRYYQGLGLISPPQKNGRRAIYGNDHISRLEEIKKLAFEGFSLRQISLL | 0.22
HMENTIPSVIGRTLSDGVFLLESYGYVKGNVSEEFSEMPIGVIIRQFPGAGSAAEAGTRVDLVVSKGEEIV | -0.316
HMENVALYIRLKSMASVYDDVHGYNIEWIKSMIGLSIDIEKLRTVLEDVSWITKVEEDVYSFSKNAKPFE | -2.32
HMENVQLRNFAIKATEAGIIKLSSDQRTFMWASNQKKLMTVPFDEHPYSAMAQFFKTDEGLAVFKSIEKKL | -0.428
HMEPADALVAALVARGVSPSTARITVKQYPATRIQPQLEVFDYLVAQKDPKVSRNPPGFLLSAIRGEYA | 0.0562
HMEPAPELTPREQQVLARIALGMTDKAIAEELGVSHQTVRNHVARIYQKIKVHSRSQAVVWAREKGI | 0.0801
HMEPDEESVRLKEEILSRIDYWHTTMPYMGTRKLAAKLRTEGYAVGRKLVRTYMREMGIHAVYP | -0.293
HMEPELSVDMKPLDGLLLAIKKELQAAQMYTRLARASADAEQKMVFEQLANMEKGHKARLEDIYT | -0.348
HMEPESTMIEISETLTNERLDRYLATKLPNVSRGGIQRLLREGNILVNGKKAKPTQHPVAGQKIEITWPNP | -0.11
HMEPEYIGELEKRIKKLKTHTYSSIDRLMKSISKKYKITTQVLHDDFKNKHNEIPDEWVKQF | 0.22
HMEPKIKQIVPNVVNYPVEDAKNVLVNSGLIVQIRGQGNIVYDQVPKGGAEVTRGTTVILDLNPPPGA | -0.768
HMEPKQIEVPNLVGISSAAARQTLSALGLHAVVKDSIWSETERIDTVLEQNPAGGALIKPEGTVYLRVSR | 0.0547
HMEPLIRTLEEQIAEKIKNYRKGTRVYDAEHVDRWISQLPEEERMVVLTETNRLLEQNYVDQAKLME | -0.803
HMEPMLEIFDAKIDLADVLAVESGLVRLRGGAEVTSPRVDVDAGARLELDSGARLNVERLSY | -0.823
HMEPMTDQQILEGFAEFKRQNPDLMNRPATQAIVNLTLPGGTPISFRSGAGAAALNQYLESIGMRAGP | -0.0242
HMEPPAPAPDIPYPSRVTVRREVDGWPHYYGTWTRTPPVLGYEGIWLVGVSLDGKVQFVPVDDVTIA | -0.555
HMEPREEFTFADLRANGLNGTAAAAGRRAALGAALGIGYGNAKQFLRRLNHYGVTRSEWEAALADLDE | -0.0963
